Assay results reported in patent US20020147326A1, “Hexameric fusion proteins and uses therefor” (SmithKline Beecham Corporation, priority 1996, published 2002).
“Also recorded” adds a separate entry of the source.

Tests used:
[1] = biological target: T1, biotinylated CD80-Igαtp binding to immobilized CD28-Ig (Homo sapiens, UniProt P10747); assay: Competition ELISA of biotinylated CD80-Igαtp binding to immobilized CD28-Ig; details: competitor added simultaneously; wells coated with CD28-Ig
T1 construct: native leader and extracellular domain peptide of CD28 and CD80 were grafted onto a human IgG1 heavy chain Fc region; human IgG1 Fc (hinge/CH2/CH3); made in house; host or cells: CHO cells
Description: The wells of 96 well microtiter plates (Immunlon 4, Dynatech Laboratories) were coated with CD28-Ig (1, 2, or4 μg/ml) in 100 μl/well of 0.1 M sodium bicarbonate, pH 9.4 and incubated overnite @4° C. The wells were washed with PBS (phosphate buffered saline) and blocked with 0.5% gelatin in PBS for 1 hour. Following an additional PBS wash, biotinylated CD80-Igαtp was serially diluted in PBS containing 1 mg/ml BSA, 0.05% Tween directly in the wells in a final volume of 0.1 ml and incubated for 1 hour. The wells were washed with PBS and bound CD80-Igαtp protein was measured by the addition of 0.1 ml of strepavidin-HRP (streptavidin conjugated with horseradish peroxidase (Southern Biotech)) at a 1:2000 dilution for 1 hour, followed by washing and color development with 100 μl ABTS substrate (Kierkegaard and Perry Laboratories Inc., Maryland) and measurement of absorbance at 405 nm. In some cases the color reactions were arrested by addition of 100 μl of 1% SDS prior to measurement of absorbance. In this figure, “CD28-Fc”, “CTLA4-Fc”, and “B7-FcA” denote CD28-Ig, CTLA4-Ig, and CD80-Igαtp, respectively.

[2] = test system: murine T-cell hybridoma cell lines expressing human CD28 (PCD28.1.s2.1, DCL27CD28wt.s2); assay: IL-2 production by CD28 T-cell hybridomas (CTLL-2 bioassay); assay type: cell-based; details: addition of CTLA4-Ig
Text: The CD80- and CD86-Igαtp proteins were compared to the corresponding CD80 and CD86-Ig proteins to determine their ability to stimulate cells expressing human CD28 using two murine T-cell hybridoma cell lines expressing human CD28, PCD28.1.s2.1 and DCL27CD28wt.s2. The PCD28.1.s2.1 cell line was described in Example 1, part 3. The DCL27CD28wt.s2 cell line was created by transfection of the DC27 cell line [F. Pages et al., Nature, 369:327-329 (1994); F. Pages et al., J. Biol. Chem., 271(16):9403-9409 (1996)] with the same CD28 expression vector used for the PCD28.1.s2.1 cells [D. Couez et al., Molecular Immunology, 31:47-57 (1994)]. These cell lines were examined for their ability to produce IL-2 in response to activation with CD80- and CD86-Ig in comparison with the corresponding Igαtp fusion proteins. 96-well plates were coated with or without a CD3 antibody together with the CD80 and CD86 fusion proteins. This was accomplished by first incubating the plates with a previously determined suboptimal concentration of hamster […] CD3 antibody (MAb 145-2C11, Boerhinger-Mannheim Biochemicals) for two hours at room temperature (RT) or with just buffer alone, washing the plates with PBS, adding goat anti-human Ig heavy chain (GAH-IgHc, Sigma Chemical Co.) for an additional two hours at RT, washing again and coating with different concentrations of the CD80 or CD86 fusion protein for 16-18 hours at 4° C., washing again, and finally blocking for 30 min. with 0.2% BSA-PBS. T cells (1×10^5/well) were added in 150 μl medium into duplicate wells. For comparison, the soluble fusion proteins and the 248.23.2 CD28 MAb (IgM) [A. Morretta, University of Genova, Italy] were added to non-coated wells. T cells were incubated in the wells for 24 hours at 37° C., and supernatants were collected and evaluated for IL-2 levels in a standard CTLL-2 bioassay [S. M. Gillis et al., J. Immunol., 120:2027 (1978)]. Briefly, 1×10^4 IL-2 dependent CTLL-2 cells (ATCC)/well in 75 μl medium were added to an equal volume of test supernatant and incubated for 24 hours at 37° C. The cells were pulsed with 10 μl of 5 mg/ml MTT (Sigma Chemical Co.) for 4 hours, and lysed with […] 10% SDS/0.01N HCl solution for 14-16 hours. OD570 readings were converted into ng/ml of IL-2 based on a standard curve generated by treating cells with known concentrations of IL-2.
IL-2 promoter activity and IL-2 levels were measured similarly to that described in parts A and B above, except that proliferation of the reader CTLL-2 cells was measured by ^3H-thymidine incorporation.

Which results are given for “CTLA4-Ig: binding protein/Fc construct for human CTLA4 with human IgG1 Fc”?
inhibition of biotinylated CD80-Igαtp binding to immobilized CD28-Ig [1]: inhibited; also recorded: blocked the binding sites on CD80-Igαtp; blockade of the response to CD80- and CD86-Igαtp [2]: complete blockade
